Substrate in this data set: COc1cc2ccc(=O)oc2cc1O[C@@H]1O[C@H](CO)[C@@H](O)[C@H](O)[C@H]1O
Description: glucose release, D-Glucose HK assay, substrate inhibition fit. The format is biochemical, Streptomyces scabiei. Particulars: HEPES 50 mM pH 7.5, 40 °C, 4 min, substrate inhibition model.

B1: His6-BglC (Streptomyces scabiei 87.22) (protein)
chain: MPEPVNPATPVTFPPAFLWGAATSAYQIEGAVREDGRTPSIWDTFSHTPGKTAGGENGDIAVDHYHRYRDDVAMMADLGLNAYRFSVSWSRVQPTGRGPAVQKGLDFYRRLVDELLAKGIKPAVTLYHWDLPQELEDAGGWPERDIVHRFAEYARIMGEALGDRVEQWITLNEPWCTAFLGYGSGVHAPGRTDPVASLRAAHHLNVAHGLGVSALRSAMPARNSIAVSLNSSVVRPITSSPEDRAAARKIDDLANGVFHGPMLHGAYPETLFAATSSLTDWSFVRDGDVATAHQPLDALGLNYYTPALVGAADAGLEGPRADGHGASEHSPWPAADDVLFHQTPGERTEMGWTIDPTGLHELIMRYAREAPGLPMYVTENGAAYDDKMDADGRVHDPERIAYLHGHLRAVRRAIAEGADVRGYYLWSLMDNFEWAYGYGKRFGAVYVDYATLTRTPKSSAHWYGQAAKTGALPPLAPAPA
For B1, the Km was determined as 300 µM and the catalytic constant (kcat) is 9.4 s⁻¹.

(Values after publication doi:10.1101/2021.10.20.465124v1.)
